Measurements taken from the supplement of paper PMC9170038.

Columns and labels:
[1] = test system: K4 kissing-loop RNA reporter; test: apparent KD of K4 kissing-loop reporter; higher = weaker reporter binding; conditions: Eterna round: R107;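 also: bound reporter read as fluorescence of individual clusters on recovered sequencing chips by microscopy, with normalized cluster intensities fitted with a binding model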
Method: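 RNA-MaP round R107: designed RNA switches with theophylline, tryptophan, arginine or FMN aptamers are transcribed on-chip within common flanks. They are titrated with a labelled K4 kissing-loop RNA reporter in RNA-MaP buffer (100 mM Tris pH 7.5, 80 mM KCl, 4 mM MgCl2), without ligand or with the indicated ligand. Median apparent KD per design.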

MS2 coat protein = test: apparent KD of MS2 coat protein; designed switch direction (-1 OFF switch, 1 ON switch): -1; higher = weaker reporter binding
How it was run: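 Transcription of designed RNA switches on Illumina chips was done by stalled E. coli RNA polymerase. SNAP-549-labelled MS2 coat protein was then titrated in doubling steps from 0.7 or 1.5 nM to 3 µM, with steps of 0.8–1.5 h at the lowest and 10–20 min at the highest concentration. The per-design median over clusters of curve-fitted normalised fluorescence is reported as apparent KD.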

[2] = input ligand: theophylline 20 uM
[3] = input ligand: tryptophan 2.4 mM
[4] = Eterna round: R95, input ligand: FMN 200 uM
[5] = Eterna round: R95, input ligand: microRNA oligo, concentration not stated
[6] = Eterna round: R95, input ligand: none

## AACUCUCAGGCACCCGAGUGAUGUUCGGGCCGAGGACCGGUACGGCCGCCACUCGGGCCUGAGAGAGGUUAUCAAAGAUAGCCAA [Omei KL Tryp A SS A v1]
[1]; input ligand: FMN 200 uM
  apparent KD of K4 kissing-loop reporter: 247 nM
[1]; input ligand: arginine 13.2 mM
  apparent KD of K4 kissing-loop reporter: 68.5 nM
[1]; input ligand: none
  apparent KD of K4 kissing-loop reporter: 114 nM
[1]; [2]
  apparent KD of K4 kissing-loop reporter: 62.7 nM
[1]; [3]
  apparent KD of K4 kissing-loop reporter: 248 nM

## AACUGCCAAGGAACAUUGUAAGAAGGUGAUACCAGCAUCGAAAGAUGCCCUUGGCAGCACCAACUUGCAGUGAUGUUGCAAGUAA [Design5]
[1]; input ligand: FMN 200 uM
  apparent KD of K4 kissing-loop reporter: 183 nM
[1]; input ligand: arginine 13.2 mM
  apparent KD of K4 kissing-loop reporter: 156 nM
[1]; input ligand: none
  apparent KD of K4 kissing-loop reporter: 165 nM
[1]; [2]
  apparent KD of K4 kissing-loop reporter: 180 nM
[1]; [3]
  apparent KD of K4 kissing-loop reporter: 159 nM

## AACUGGGUUCGUGAUACCAGCUCACACAUGAGUGAUGUUCAUGUAGUGGGCAAAAUGUGGAGCCCUUGGCAGCACUGUGACCACG [XTheo-B2]
[1]; input ligand: FMN 200 uM
  apparent KD of K4 kissing-loop reporter: 81.1 nM
[1]; input ligand: arginine 13.2 mM
  apparent KD of K4 kissing-loop reporter: 69 nM
[1]; input ligand: none
  apparent KD of K4 kissing-loop reporter: 77 nM
[1]; [2]
  apparent KD of K4 kissing-loop reporter: 73.3 nM
[1]; [3]
  apparent KD of K4 kissing-loop reporter: 78.5 nM

## AACUGUCAAGGACAACAUUACUGAGGUGAUACCAGCAUCGAAAGAUGCCCUUGGCAGCACUGACUUGCAGUGAUGUUGCAAGUAA [BrourdMod 8 - Jieux - Exclusion - Theophylline A]
[1]; input ligand: FMN 200 uM
  apparent KD of K4 kissing-loop reporter: 208 nM
[1]; input ligand: arginine 13.2 mM
  apparent KD of K4 kissing-loop reporter: 162 nM
[1]; input ligand: none
  apparent KD of K4 kissing-loop reporter: 199 nM
[1]; [2]
  apparent KD of K4 kissing-loop reporter: 215 nM
[1]; [3]
  apparent KD of K4 kissing-loop reporter: 189 nM

## AACUGUCGAGGACAACAUUACUGAGGUGAUACCAGCAUCGAAAGAUGCCCUUGGCAGCACCAACUUGCAGUGAUGUUGCAAGUAA [BrourdMod 9 - Jieux - Exclusion - Theophylline A]
[1]; input ligand: FMN 200 uM
  apparent KD of K4 kissing-loop reporter: 356 nM
[1]; input ligand: arginine 13.2 mM
  apparent KD of K4 kissing-loop reporter: 324 nM
[1]; input ligand: none
  apparent KD of K4 kissing-loop reporter: 343 nM
[1]; [2]
  apparent KD of K4 kissing-loop reporter: 473 nM
[1]; [3]
  apparent KD of K4 kissing-loop reporter: 314 nM

## AAGCAGUCACGCGAAGCCAUCGAAGAUGGUCGAGGACCGGUACGGCCGCCACUCGGAGUGAUGUUCCGAAGACUGCAAAAUAAAA
[1]; input ligand: FMN 200 uM
  apparent KD of K4 kissing-loop reporter: 326 nM
[1]; input ligand: arginine 13.2 mM
  apparent KD of K4 kissing-loop reporter: 270 nM
[1]; input ligand: none
  apparent KD of K4 kissing-loop reporter: 333 nM
[1]; [2]
  apparent KD of K4 kissing-loop reporter: 314 nM
[1]; [3]
  apparent KD of K4 kissing-loop reporter: 341 nM

## AAGCAGUCACUCGAAACCAUCGAAGAUGGUCGAGGACCGGUACGGCCGCCACUCGGAGUGAUGUUCCGAAGACUGCAAAAUAAAA [#SwitchBubble 10]
[1]; input ligand: FMN 200 uM
  apparent KD of K4 kissing-loop reporter: 313 nM
[1]; input ligand: arginine 13.2 mM
  apparent KD of K4 kissing-loop reporter: 334 nM
[1]; input ligand: none
  apparent KD of K4 kissing-loop reporter: 286 nM
[1]; [2]
  apparent KD of K4 kissing-loop reporter: 277 nM
[1]; [3]
  apparent KD of K4 kissing-loop reporter: 751 nM

## AAGCAGUCACUCGAAUCCAUCGAAGAUGGACGAGGACCGGUACGGCCGCCACUCGGAGUGAUGUUCCGAAGACUGCAAAAUAAAA
[1]; input ligand: FMN 200 uM
  apparent KD of K4 kissing-loop reporter: 306 nM
[1]; input ligand: arginine 13.2 mM
  apparent KD of K4 kissing-loop reporter: 246 nM
[1]; input ligand: none
  apparent KD of K4 kissing-loop reporter: 342 nM
[1]; [2]
  apparent KD of K4 kissing-loop reporter: 345 nM
[1]; [3]
  apparent KD of K4 kissing-loop reporter: 482 nM

## AAGCAGUCACUCUAAGCCAUCGAAGAUGGUCGAGGACCGGUACGGCCGCCACUCGGAGUGAUGUUCCGAAGACUGCAAAAUAAAA
[1]; input ligand: FMN 200 uM
  apparent KD of K4 kissing-loop reporter: 410 nM
[1]; input ligand: arginine 13.2 mM
  apparent KD of K4 kissing-loop reporter: 393 nM
[1]; input ligand: none
  apparent KD of K4 kissing-loop reporter: 468 nM
[1]; [2]
  apparent KD of K4 kissing-loop reporter: 459 nM
[1]; [3]
  apparent KD of K4 kissing-loop reporter: 249 nM

## AAGCAGUCAGAGAGUGAUGUUCUCAAAUAACGAGGACCGGUACGGCCGCCACUCGAAGACUGCAAGUCCUACGAAAAGUAGGACA [Omei inspired 9]
[1]; input ligand: FMN 200 uM
  apparent KD of K4 kissing-loop reporter: 78.7 nM
[1]; input ligand: arginine 13.2 mM
  apparent KD of K4 kissing-loop reporter: 59.5 nM
[1]; input ligand: none
  apparent KD of K4 kissing-loop reporter: 58.3 nM
[1]; [2]
  apparent KD of K4 kissing-loop reporter: 136 nM
[1]; [3]
  apparent KD of K4 kissing-loop reporter: 74.4 nM

## UUUUUAUAUGAAGGAUAUACUUAACAUGAGGAUCACCCAUGUGGUGUUGUGAGUGAGUGAGUUUAGUAGAAGGUCAAUUAUUUC [JMF's solution 17] (Eterna round: R96, puzzle: Exclusion NG 2)
MS2 coat protein; input ligand: FMN 200 uM
  apparent KD of MS2 coat protein: 537 nM
MS2 coat protein; input ligand: microRNA oligo, concentration not stated
  apparent KD of MS2 coat protein: 292 nM
MS2 coat protein; input ligand: none
  apparent KD of MS2 coat protein: 549 nM

## UUUUUCAGGCCAGAUCCUCACAUGAGGAUCACCCAUGUGCUCGUCUGUUUUCGCUCUGUCUUUUUUUUGGUGGUGCU [Level Boss var2-20] (puzzle: Sensor v3, turn-off variant 1)
MS2 coat protein; [4]
  apparent KD of MS2 coat protein: 177 nM
MS2 coat protein; [5]
  apparent KD of MS2 coat protein: 26.7 nM
MS2 coat protein; [6]
  apparent KD of MS2 coat protein: 178 nM

## UUUUUCGAACAAGCUUCGUACAUGAGGAUCACCCAUGUUUUUAGAUUUGAGUAGGUUUGUAUGGAAGUUCGUCUUAU [JR_SV3TOV1_Sub087] (puzzle: Sensor v3, turn-off variant 1)
MS2 coat protein; [4]
  apparent KD of MS2 coat protein: 32.3 nM
MS2 coat protein; [5]
  apparent KD of MS2 coat protein: 159 nM
MS2 coat protein; [6]
  apparent KD of MS2 coat protein: 34.3 nM

## UUUUUGUGAGGAUAUCAGUAGUAAAAAAAUAAAAUUACUACUGAGAAGGCACAUGAGGAUCACCCAUGUUCUUU [salish99_ex4_r3_012] (puzzle: Exclusion 4)
MS2 coat protein; [5]
  apparent KD of MS2 coat protein: 18.4 nM

## UUUUUUGUUUUUUUUACAAGCUUUUUGCUCGUCUUAUUAACAUGAGGAUCACCCAUGUCAAAGAGACCUCAUGUAUU [Sensor v3 - turn-off variant 2 - 1] (puzzle: Sensor v3, turn-off variant 2)
MS2 coat protein; [4]
  apparent KD of MS2 coat protein: 91.2 nM
MS2 coat protein; [5]
  apparent KD of MS2 coat protein: 15.7 nM
MS2 coat protein; [6]
  apparent KD of MS2 coat protein: 207 nM

## UUUUUUUUGCUGGUUUUUUACAUGAGGAUCACCCAUGUCCUCUGCUUGUCUUGUGUUGUGCUGGUUUCUGGUGCGGC [Revision to "-18.4 -40.2 kcal, A 8%"by Sellena] (Eterna round: R97, puzzle: Sensor, turn-off variant 1)
MS2 coat protein; input ligand: FMN 200 uM
  apparent KD of MS2 coat protein: 428 nM
MS2 coat protein; input ligand: none
  apparent KD of MS2 coat protein: 1210 nM
